Test: yeast display, Sf9 membrane polyspecificity reagent, FACS + sequencing; frameworks hold sequencing errors
Procedure, shortened: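 Nanobodies came from a synthetic yeast display library in Saccharomyces cerevisiae BJ5465, induced with galactose for 36–48 hours and stained for 1 hour at 4 °C with 10% biotinylated, detergent-solubilized Sf9 membrane reagent. Cells were enriched on streptavidin microbeads and then FACS-sorted, with low and high (top ~1%) gates set on anti-HA fluorescence for expression and streptavidin fluorescence for reagent binding. Each polyreactivity label reflects the gate a clone came from. Genes were amplified by colony PCR, sequenced by MiSeq 2 × 250 and filtered by CDR length.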

Sequence | polyreactivity (PSR sort gate)
QVQLVESGGGLVQAGGSLRLSCAASGSIFGGNAMGWYRQAPGKERELVATITDRGSSTYYADSVKGRFTISRDNAKNTVYLQMNSLKPEDTAVYYCATAFPDVPEPDYWGQGAQVTVSS | low polyreactivity
QVQLVESGGGLVQAGGSLRLSCAASGSIFGGYAMGWYRQAPGKERELVAAIDESGGSTYYADSVKGRFTISRDNAKNTVYLQMNSLKPDDTAVDYCLVFRDDSGPGDYYYWGQGTQVTVSS | low polyreactivity
QVQLVESGGGLVQAGGSLRLSCAASGSIFGGYAMGWYRQAPGKERELVATITRGGSTYYADSVKGRFTISRDNAKNTVYFQMNSLKPEDTAVYYCAARLRSKTYYTLEFDYWGQGTQVTVSS | high polyreactivity
QVQLVESGGGLVQAGGSLRLSCAASGSIFGGYAMGWYRQAPGKERELVATSYADSVKGRFTISRDIAKNTVYLQMNSLKPEDTAVYYCAADPPLEGVHGYNYWGQGTQVTVSS | low polyreactivity
QVQLVESGGGLVQAGGSLRLSCAASGSIFGGYAMGWYRQPPGKERELVAAITWGGGSTYYADSVKGRFTISRDNAKNTVYLQMNSLKPEDTAVYYCAADRSWYDWEDDYWGQGTQVTVSS | low polyreactivity
QVQLVESGGGLVQAGGSLRLSCAASGSIFGGYGMGWYRQAPGKERELVAAINSGSSTYYADSVKGRFTISRDNAKNTVYLQMNSLKPEDTAVYYCAARPYPHSAYEGDYWGRGTQVTVSS | low polyreactivity
QVQLVESGGGLVQAGGSLRLSCAASGSIFGGYTMGWYRQAPGKERELVAAISRRGGNTYYADSVKGRFTISRDYAKNTVYLHMKSMKPEDTAVYYCAVRWPSARIPVKLDYWGQGTQVTVSS | high polyreactivity
QVQLVESGGGLVQAGGSLRLSCAASGSIFGHYAMGWYRQAPGKERELVAAISYSGGSTYYADSVKGRFTISRDNAKNTVYLQMNILKPEDTAVYYCNADLYDAGSEMDYWGQGTQVTVSS | high polyreactivity
QVQLVESGGGLVQAGGSLRLSCAASGSIFGINAMGWYRQAPGKERELVAAISYSGGSTYYADTVKGRFTISRDNAKNTVYLQMNSLKPEDTAVYYCARRGKHVAGRYYYWGQVTQVTVSS | high polyreactivity
QVQLVESGGGLVQAGGSLRLSCAASGSIFGINTMGWYRHAPGKEREFVASIRFNDGDTYYADSVKGRFTISRDTAKNTVYLKMNSLKPEDTAVYYCNVQTYVELRLDYWGQGTQVTVSS | low polyreactivity
QVQLVESGGGLVQAGGSLRLSCAASGSIFGINTMRWYRQAPGKEREFVASIRFNDGDTYYADSVKGRFTISRDNAKNTVYFQMNSLKPEDTAVYYFNVQTYVELRLDYWGQGTHVTVSS | low polyreactivity
QVQLVESGGGLVQAGGSLRLSCAASGSIFGIYAMGWYRQAPGKERELVAAIRRGGSTYYADSVKGRFTISRDNAKNTVYLQMNSLKPEDTAVYYCAGRKYRLWGKGVDYDFCGQGTQVTVSS | high polyreactivity
QVQLVESGGGLVQAGGSLRLSCAASGSIFGIYVMGWYRPAPGKERELVAGISTRGGSTYYADSVKGRFTISRDNAKNTVYLQMNSLKPEDTAVYYCAAVPASYRYPMYYWGQGTQVTVSS | low polyreactivity
QVQLVESGGGLVQAGGSLRLSCAASGSIFGKNAMGWYRQAPGKDRELVAAISWSGGRTYYADSVKGRFTISRDNAKNSVYLQMNSLKPEDTAVYYCAASWWGVARGSSRKKYDYWGQGTQVTVSS | high polyreactivity
QVQLVESGGGLVQAGGSLRLSCAASGSIFGKNAMGWYRQARGKERELVAAITWSGGSTYYADSVKGRFTISRENAKNTVYLQMNSLKPEDTAVYYCNAVRVRVTSHRIRQLDFGYWGQGTQVTVSS | low polyreactivity
QVQLVESGGGLVQAGGSLRLSCAASGSIFGKYTMGWYRQAPGKERELVAAISRSGSSTYYADSVKGRFTISRDNAKNTVYLQMNSLKPEDTAVYYCAAKFYYGVTSKFESWGQGTQVTVSS | high polyreactivity
QVQLVESGGGLVQAGGSLRLSCAASGSIFGKYVMGWYRQAPGKERELVAAITFGGGSTYYADSVKGRFTISRDNAKNTVYFQMNSLKPEDTAVYYCAAKSYDERLYRRPRDYWGQGTQVTVSS | high polyreactivity
QVQLVESGGGLVQAGGSLRLSCAASGSIFGLNAMGWYRQPPGKERELVAAINSDGDTYYADSVKGRFTISRDNAKNTVYLQMNSLKPEDTAVYYCSADYYWDPFDSNFGHVPQEYESWGQGTQVTVSS | low polyreactivity
QVQLVESGGGLVQAGGSLRLSCAASGSIFGLYAMGWYRQAPGKEREFVASITYSGGSTYYADSVKGRFTISRDNAKNTVYLQMNSLKPEDTAVYYCAAESYWGYDYWGQGTQVTVSS | high polyreactivity
QVQLVESGGGLVQAGGSLRLSCAASGSIFGLYAMGWYRQAPGKERELVAAINQSGGSTSYADSVKGRFTISRDNAKNTVYLQMNSLKPEDNAVYYCNRVRLNTEGFDYWGQGTQVTVSS | low polyreactivity
QVQLVESGGGLVQAGGSLRLSCAASGSIFGLYAMGWYRQAPGKERELVAAITVSGGSTYYADSVKGRFTISRDNAKNTVYLQMNSLKPEDTAVYYCAARAGWPLYQYYYWGQGTQVTVSS | high polyreactivity
QVQLVESGGGLVQAGGSLRLSCAASGSIFGLYAMGWYRQAPGKERELVAGITYSGGSTYYADSVKGRFTISRDNAKNTVYLQLNSLKPEDTAVYYCNTRYWRGWYAYYYWGQGTQVTVSS | high polyreactivity

Sequence | polyreactivity (PSR sort gate)
QVQLVESGGGLVQAGGSLRLSCAASGSIFGNNAMGWYRKAPGKERELVAAISSGGSTKYADSVKGRFTISRDNAKNTVYLQMNSLKPEDTAVYYCAKDSWSRAYSWATRVHWRYDYWGQGTQVTVSS | low polyreactivity
QVQLVESGGGLVQAGGSLRLSCAASGSIFGNYAMGWYRQAPGKERELVAGISKSGGRTYYADSVKGRFTISRDNAKITVYLQMNRLKPEDTAVYYCNALVTRYQSLDRLGDYWGQGTQVTVSS | high polyreactivity
QVQLVESGGGLVQAGGSLRLSCAASGSIFGPNAMGWYRQAPGKERELVAAITSGSSTKYADSVKGRFTISRDNAKNPVYLQMNSLKPEDTAVYYCAASGTTTWKYGYWGQGTQVTVSS | low polyreactivity
QVQLVESGGGLVQAGGSLRLSCAASGSIFGPYAMGWYRQAHGKERELVAAITISGGSTYYADSVKRRFTISRDNAKNTVYLQINSLKPEDTAVYYCAADYWVDYEYDYYWEYNYWGQGSQVTVSS | high polyreactivity
QVQLVESGGGLVQAGGSLRLSCAASGSIFGPYAMGWYRQAPGKERELVAAITWSGDSTYYADSVKGRFTISRDNAKNTVYLQMNSLKTEDTAVYYCAAETFIWGQGTQVTVSS | low polyreactivity
QVQLVESGGGLVQAGGSLRLSCAASGSIFGPYAMGWYRQAPGKERELVAAITWTGGRTYYADSVKGRFTISRDNAKNTVYLQMISLNPEDTAVYYCAADYSPSTWYLYYTLFYYWGQGTQVTVSS | low polyreactivity
QVQLVESGGGLVQAGGSLRLSCAASGSIFGPYAMGWYRQAPGKERELVAGITRSVGSTYYADSVKGRFTISRDNAKNTVFLQMNSLKPEDTAVYYCNAKWLYSRWAGYDYWGQGTQVTVSS | low polyreactivity
QVQLVESGGGLVQAGGSLRLSCAASGSIFGPYAMVWYRQAPGKERELVAAISSRGSSTYYADSVKGRFTISRDNAKNTVYLQMNSLKPEDTAVYYCAALYYVYGYDYWGQGTQVTVSS | high polyreactivity
QVQLVESGGGLVQAGGSLRLSCAASGSIFGQYVMGWYRQAPGKERELVAAITRRGGTTYYADSVKGRFTISRDNAKNTVYLQMNSLKPEDTAVYYCAARVRVPQTARLHEYWGQGTQVTVSS | high polyreactivity
QVQLVESGGGLVQAGGSLRLSCAASGSIFGRNAMGSSRQAPGKERELVAAITWSGDSTYYADSVKGRFTISRDNAKNTVYLLMNSLKPEDTAVYYCAAGTATDVASIGATKDYDYWGQGTQVTVSS | low polyreactivity
QVQLVESGGGLVQAGGSLRLSCAASGSIFGRNAMGWYRQAPGKEREFVATITSRGGRTYYADSVKGRFTISRDNAKNTVYLQMNSLKPEDTAVYYCAADTYISTLKKYRLGDYWGQGTQVTVSS | low polyreactivity
QVQLVESGGGLVQAGGSLRLSCAASGSIFGRNAMGWYRQAPGKERELVAAINSGGSTNYADSVKGRFTISRDNAKNTVYLQMNSLKPEDTAVYYCAARTYSSGRYYGYVAFYYWGQGTQVTVSS | high polyreactivity
QVQLVESGGGLVQAGGSLRLSCAASGSIFGRNAMGWYRQAPGKERELVAVISKRSGNTYYADSVKGRFTISRDNAKNTVYLQLNSLKPEDTAVYYCNAVDQKLLRYDYWGQGTQVTVSS | high polyreactivity
QVQLVESGGGLVQAGGSLRLSCAASGSIFGRNAMGWYRQEPGKERELVARISYIGGSTYYADSVKGRFTISRDNAKNTVYLQMNSLKPEDTAVYYCAKRYGFRYKRMDYWGQGTQVTVSS | low polyreactivity
QVQLVESGGGLVQAGGSLRLSCAASGSIFGRNVMGWYRQAPGKERELVARITRGGSTNYADSVKGRFTISRDNAKNTVYLQMNRLQPEDTAVYYCAAGARQYRGVPDRYGYWGQGTQVTVSS | low polyreactivity
QVQLVESGGGLVQAGGSLRLSCAASGSIFGRYAMGLYRQAPGKERELVATISRTGGSTNYADSVKGRFTISRDNAKNTVSLQMNSLKPEDTAVYYCNAASVYANYYTYVDYYTEGFYYWGQGTQVTVSS | low polyreactivity
QVQLVESGGGLVQAGGSLRLSCAASGSIFGRYAMGWYRQAPGKERELVAAISRTGVSTYYADSVKGRFTISRDNAKNTVYLQMNSLKPEDTAVYYCNAVRLSWQNTYYYWGQGTQVTVSS | high polyreactivity
QVQLVESGGGLVQAGGSLRLSCAASGSIFGRYAMGWYRQAPGKERELVAAISWNGGSTYYADSVKGRFTISRDNAKNTVYLQMNILKPEDTAVYYCAADSGYSGYYYWGQGTQVTVSS | high polyreactivity
QVQLVESGGGLVQAGGSLRLSCAASGSIFGRYAMGWYRQAPGKERELVAAITRSGVSTYYADSVKGRFTISGDYAKNTVYLQMNSLKPEETAVYYCNAYYRIRSSPYGYYYWGEGTQVTVSS | high polyreactivity
QVQLVESGGGLVQAGGSLRLSCAASGSIFGRYGAIGWYRQAPGKERELVAAINRSGGITYYADSVKGRFTISRDNAKNTVYLQMNSLKPEDTAVYYFNADAYYYSTSPRGAFDWPYDYWGQGTQVNVSS | low polyreactivity
QVQLVESGGGLVQAGGSLRLSCAASGSIFGRYTMGWYRQAPGKERELVARIRSGGTTYYADSVKGRFTISRDNAKNTVYLQMNSLKPEDTAVYYCAAGRDARDYYSWGQGTQVTVSS | high polyreactivity
